Like-named read-outs stand apart in the source and are kept apart here.
Assays:
monoubiquitin [1] = molecular target: monoubiquitin (UniProt P0CG48); settings: cited from earlier work
monoubiquitin [2] = molecular target: monoubiquitin (UniProt P0CG48); settings: cited from earlier work; remark: listed apart in the source
monoubiquitin [3] = molecular target: monoubiquitin (UniProt P0CG48); settings: cited from earlier work; remark: listed apart in the source
monoubiquitin [4] = molecular target: monoubiquitin (UniProt P0CG48); settings: cited from earlier work; remark: listed apart in the source
monoubiquitin [5] = molecular target: monoubiquitin (UniProt P0CG48); settings: cited from earlier work; remark: listed apart in the source
[6] = molecular target: XIAP-UBA-RING double-domain construct (human); assay: SEC; analytical size-exclusion chromatography of 15N-XIAP-UBA-RING at 0.18 mM (methods in Methods S1)
monoubiquitin [7] = molecular target: monoubiquitin (UniProt P0CG48); settings: cited from earlier work; remark: listed apart in the source
monoubiquitin [8] = molecular target: monoubiquitin (UniProt P0CG48); settings: cited from earlier work; remark: listed apart in the source

Ede1 UBA, sequence (P34216 1335-1381): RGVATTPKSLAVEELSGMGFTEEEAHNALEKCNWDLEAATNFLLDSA
Dsk2 UBA, sequence (P48510 324-373): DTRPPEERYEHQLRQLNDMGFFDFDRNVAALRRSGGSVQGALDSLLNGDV
Swa2 UBA, sequence (Q06677 137-183): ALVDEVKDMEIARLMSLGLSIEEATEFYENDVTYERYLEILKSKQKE
Mud1 UBA, sequence (Q10256 291-332): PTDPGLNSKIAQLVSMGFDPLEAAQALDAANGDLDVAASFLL
cIAP-1, sequence (Q13490 whole entry): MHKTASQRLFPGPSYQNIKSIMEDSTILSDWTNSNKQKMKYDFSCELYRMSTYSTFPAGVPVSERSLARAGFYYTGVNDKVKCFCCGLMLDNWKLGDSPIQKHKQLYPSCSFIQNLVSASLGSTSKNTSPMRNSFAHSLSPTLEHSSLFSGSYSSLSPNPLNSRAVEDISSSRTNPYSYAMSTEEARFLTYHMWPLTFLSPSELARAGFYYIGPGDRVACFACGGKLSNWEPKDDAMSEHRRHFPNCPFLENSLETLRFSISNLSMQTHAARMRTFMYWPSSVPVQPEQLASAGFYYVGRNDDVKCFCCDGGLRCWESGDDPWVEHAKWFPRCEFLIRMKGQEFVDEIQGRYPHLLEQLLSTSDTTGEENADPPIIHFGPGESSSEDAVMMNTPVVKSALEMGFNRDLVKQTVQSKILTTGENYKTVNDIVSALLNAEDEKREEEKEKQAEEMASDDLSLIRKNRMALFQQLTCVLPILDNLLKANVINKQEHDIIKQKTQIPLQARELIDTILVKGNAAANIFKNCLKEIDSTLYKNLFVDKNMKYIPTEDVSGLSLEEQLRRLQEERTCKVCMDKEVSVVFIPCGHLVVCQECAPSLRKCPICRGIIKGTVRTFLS
Cbl-b UBA, sequence (Q13191 928-973): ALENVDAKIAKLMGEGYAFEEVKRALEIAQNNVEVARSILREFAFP
hHR23A UBA2, sequence (P54725 315-361): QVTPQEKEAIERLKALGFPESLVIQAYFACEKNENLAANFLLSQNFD

Q: Which Kd (monoubiquitin [1]) does the source give for Cbl-b UBA (from UniProt Q13191) here?
A: Its Kd is 53.1 µM.

Q: Which Kd (monoubiquitin [2]) does the source give for Dsk2 UBA (from UniProt P48510) here?
A: The Kd was 14.8 µM.

Q: For Ede1 UBA (from UniProt P34216), which Kd (monoubiquitin [3]) is on record?
A: The Kd was 83 µM.

Q: Which Kd (monoubiquitin [4]) does the source give for Mud1 UBA (from UniProt Q10256) here?
A: Its Kd is 350 µM.

Q: With Swa2 UBA (from UniProt Q06677) as the substance, how does the Kd (monoubiquitin [5]) read?
A: The Kd was 535 µM.

Q: With “XIAP-UBA-RING double-domain construct (domain or fragment)” as the substance, how does the stoichiometry N [6] read?
A: The stoichiometry N was 2.

Q: With cIAP-1 (from UniProt Q13490) as the substance, how does the Kd (monoubiquitin [7]) read?
A: The Kd was 56 µM.

Q: Which Kd (monoubiquitin [8]) does the source give for hHR23A UBA2 (from UniProt P54725) here?
A: The Kd was 400 µM.

Reference: article PMC3240630
